In patent US20220380409A1 (published 2022):
Ends that are not written are not given here.

Assays:
PfLDH protein = PfLDH protein (UniProt Q27743 2-316)
GST-PfLDH [1] = biological target: T1, GST-PfLDH (UniProt Q27743 2-316); assay: sandwich ELISA
GST-PvLDH = GST-PvLDH (UniProt P84793 1-313); assay: sandwich ELISA
GST-PfLDH [2] = biological target: T1, GST-PfLDH; assay: ELISA

Row | Binder | Kd (PfLDH protein) | EC50 (GST-PfLDH [1]) | EC50 (GST-PvLDH) | EC50 (GST-PfLDH [2])
1 | binary ligand hevwh-YLGHK (not fully specified (bridges)) peptide 1: HEVWH peptide 2: YLGHK | ~0.01 µM | 0.0151 µM | 0.012 µM | 
2 | HWSAN (staple (positions not given here); also: RCM ring between olefin-bearing non-natural residues, places not given here, biotinylated) [RCM cyclized version of the HWSAN (SEQ ID NO:11) peptide] |  |  |  | 0.00257 µM
